PMC3585358, “Identification and Multidimensional Optimization of an Asymmetric Bispecific IgG Antibody Mimicking the Function of Factor VIII Cofactor Activity” (PLoS ONE, 2013)

How the values were obtained:
[1] = target: T1, human factor IXa (Homo sapiens, UniProt P00740); test: SPR; Biacore T200; anti-FIXa or anti-FX monospecific antibodies captured on MabSelect SuRe Ligand (recombinant Protein A) immobilized on a CM4 chip; natalizumab (human IgG4) on the reference cell; 0, 80, 160, 320, 640 or 1,280 nM human FIXa or FX injected at 30 uL/min; 10 mM HEPES pH 7.4, 150 mM NaCl, 0.05% surfactant P20, 2.5 mM CaCl2; conditions: both partners purified
T1 construct: also called FIXa; source: bought: Enzyme Research Laboratories (purified human coagulation factors; the source is stated for the enzymatic assay)

[2] = target: T2, human factor X (Homo sapiens, UniProt P00742); test: as above; conditions: both partners purified
T2 construct: human coagulation factor X (zymogen), light chain; also called FX; source: bought: Enzyme Research Laboratories (purified human coagulation factors; the source is stated for the enzymatic assay)
T2 sequence (P00742 41-179, chain 1 of 2): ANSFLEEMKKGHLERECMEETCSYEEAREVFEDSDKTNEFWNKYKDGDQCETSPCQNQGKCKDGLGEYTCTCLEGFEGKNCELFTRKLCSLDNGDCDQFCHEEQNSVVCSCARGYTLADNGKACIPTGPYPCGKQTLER
T2 sequence (P00742 183-488, chain 2 of 2): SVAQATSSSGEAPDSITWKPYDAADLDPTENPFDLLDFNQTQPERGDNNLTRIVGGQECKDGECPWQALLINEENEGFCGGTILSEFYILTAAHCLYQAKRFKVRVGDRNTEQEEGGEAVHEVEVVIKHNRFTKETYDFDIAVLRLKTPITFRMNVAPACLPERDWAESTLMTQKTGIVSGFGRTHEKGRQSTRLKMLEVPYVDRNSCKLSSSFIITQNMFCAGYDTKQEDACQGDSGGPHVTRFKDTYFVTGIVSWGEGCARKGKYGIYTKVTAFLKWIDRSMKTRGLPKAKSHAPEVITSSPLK

T1 sequence (P00740 47-191, chain 1 of 2): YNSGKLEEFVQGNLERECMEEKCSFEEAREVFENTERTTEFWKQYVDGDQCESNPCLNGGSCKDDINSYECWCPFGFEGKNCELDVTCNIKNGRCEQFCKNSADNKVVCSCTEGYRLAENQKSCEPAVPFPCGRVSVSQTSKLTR
T1 sequence (P00740 227-461, chain 2 of 2): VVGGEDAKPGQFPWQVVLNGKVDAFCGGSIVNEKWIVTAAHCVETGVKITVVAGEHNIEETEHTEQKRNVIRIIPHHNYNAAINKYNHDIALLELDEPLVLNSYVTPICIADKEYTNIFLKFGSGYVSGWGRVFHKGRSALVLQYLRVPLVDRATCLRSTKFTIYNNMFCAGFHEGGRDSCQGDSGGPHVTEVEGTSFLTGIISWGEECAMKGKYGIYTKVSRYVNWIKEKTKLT

B1: anti-FIXa monospecific IgG of hBS910 (anti-FIXa heavy chain and common light chain) (antibody, V domains shown)
VH: QVQLVESGGGLVQPGGSLRLSCAASGFTFSYYDIQWVRQAPGKGLEWVSSISPSGQSTYYRREVKGRFTISRDNSKNTLYLQMNSLRAEDTAVYYCARRTGREYGGGWYFDYWGQGTLVTVSS
VL: DIQMTQSPSSLSASVGDRVTITCKASRNIERQLAWYQQKPGQAPELLIYQASRKESGVPDRFSGSRYGTDFTLTISSLQPEDIATYYCQQYSDPPLTFGGGTKVEIK
notes: as the anti-FIXa heavy chain of m1; as the common light chain of m1; The SPR methods say that monospecific antibodies were captured; also called monospecific anti-FIXa antibody; anti-FIXa homodimeric antibody; source: HEK293 cells, transfected; filtrated culture supernatants or Protein A purified antibodies; copies: 2 + 2
B1: binds [1].

B2: anti-FX monospecific IgG of hBS910 (anti-FX heavy chain and common light chain) (antibody, V domains shown)
VH: QVQLVQSGSELKKPGASVKVSCKASGYTFTDNNMDWVRQAPGQGLEWMGDINTRSGGSIYNEEFQDRVIMTVDKSTDTAYMELSSLRSEDTATYHCARRKSYGYYLDEWGEGTLVTVSS
VL: DIQMTQSPSSLSASVGDRVTITCKASRNIERQLAWYQQKPGQAPELLIYQASRKESGVPDRFSGSRYGTDFTLTISSLQPEDIATYYCQQYSDPPLTFGGGTKVEIK
notes: as the anti-FX heavy chain of m1; as the common light chain of m1; The SPR methods say that monospecific antibodies were captured; also called monospecific anti-FX antibody; anti-FX homodimeric antibody; source: HEK293 cells, transfected; filtrated culture supernatants or Protein A purified antibodies; copies: 2 + 2
B2: binds [2].
